Laboratory results from publication PMC6016062 (Bioconjugate Chemistry, 2018).
Residues, ends and D or L forms follow the SMILES beside them. No end group written: not given here. *: point of attachment. Propyl(3-UDP) = O=c1ccn([C@@H]2O[C@H](COP(=O)(O)OP(=O)(O)OCCC*)[C@@H](O)[C@H]2O)c(=O)[nH]1; Floc = 5(6)-fluorescein carboxamide; Ahx = NCCCCCC(=O)O

T1: hOGT (Homo sapiens, UniProt O15294)
T1 sequence (O15294 312-1031 isoform O15294-3): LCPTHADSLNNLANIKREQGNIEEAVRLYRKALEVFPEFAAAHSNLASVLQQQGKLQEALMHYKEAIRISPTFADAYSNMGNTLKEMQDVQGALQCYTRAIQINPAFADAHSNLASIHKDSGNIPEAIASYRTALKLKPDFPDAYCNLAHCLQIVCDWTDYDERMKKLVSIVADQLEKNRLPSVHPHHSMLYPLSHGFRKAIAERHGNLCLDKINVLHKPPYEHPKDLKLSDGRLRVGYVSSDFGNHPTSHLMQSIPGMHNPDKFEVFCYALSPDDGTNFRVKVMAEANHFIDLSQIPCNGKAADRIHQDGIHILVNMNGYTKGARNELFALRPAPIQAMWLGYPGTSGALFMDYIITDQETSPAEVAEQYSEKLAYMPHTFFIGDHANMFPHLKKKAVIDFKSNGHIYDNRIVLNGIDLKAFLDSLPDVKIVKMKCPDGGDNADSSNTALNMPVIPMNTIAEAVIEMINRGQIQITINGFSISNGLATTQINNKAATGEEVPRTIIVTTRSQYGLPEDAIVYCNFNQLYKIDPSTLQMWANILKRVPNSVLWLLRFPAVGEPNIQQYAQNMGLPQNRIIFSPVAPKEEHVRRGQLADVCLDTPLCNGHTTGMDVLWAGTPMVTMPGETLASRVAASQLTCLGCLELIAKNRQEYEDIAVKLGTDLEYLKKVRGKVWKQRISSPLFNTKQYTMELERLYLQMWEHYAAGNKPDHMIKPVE

T2: human O-GlcNAc transferase (human, UniProt O15294 1-1046)
T2 sequence (looked up): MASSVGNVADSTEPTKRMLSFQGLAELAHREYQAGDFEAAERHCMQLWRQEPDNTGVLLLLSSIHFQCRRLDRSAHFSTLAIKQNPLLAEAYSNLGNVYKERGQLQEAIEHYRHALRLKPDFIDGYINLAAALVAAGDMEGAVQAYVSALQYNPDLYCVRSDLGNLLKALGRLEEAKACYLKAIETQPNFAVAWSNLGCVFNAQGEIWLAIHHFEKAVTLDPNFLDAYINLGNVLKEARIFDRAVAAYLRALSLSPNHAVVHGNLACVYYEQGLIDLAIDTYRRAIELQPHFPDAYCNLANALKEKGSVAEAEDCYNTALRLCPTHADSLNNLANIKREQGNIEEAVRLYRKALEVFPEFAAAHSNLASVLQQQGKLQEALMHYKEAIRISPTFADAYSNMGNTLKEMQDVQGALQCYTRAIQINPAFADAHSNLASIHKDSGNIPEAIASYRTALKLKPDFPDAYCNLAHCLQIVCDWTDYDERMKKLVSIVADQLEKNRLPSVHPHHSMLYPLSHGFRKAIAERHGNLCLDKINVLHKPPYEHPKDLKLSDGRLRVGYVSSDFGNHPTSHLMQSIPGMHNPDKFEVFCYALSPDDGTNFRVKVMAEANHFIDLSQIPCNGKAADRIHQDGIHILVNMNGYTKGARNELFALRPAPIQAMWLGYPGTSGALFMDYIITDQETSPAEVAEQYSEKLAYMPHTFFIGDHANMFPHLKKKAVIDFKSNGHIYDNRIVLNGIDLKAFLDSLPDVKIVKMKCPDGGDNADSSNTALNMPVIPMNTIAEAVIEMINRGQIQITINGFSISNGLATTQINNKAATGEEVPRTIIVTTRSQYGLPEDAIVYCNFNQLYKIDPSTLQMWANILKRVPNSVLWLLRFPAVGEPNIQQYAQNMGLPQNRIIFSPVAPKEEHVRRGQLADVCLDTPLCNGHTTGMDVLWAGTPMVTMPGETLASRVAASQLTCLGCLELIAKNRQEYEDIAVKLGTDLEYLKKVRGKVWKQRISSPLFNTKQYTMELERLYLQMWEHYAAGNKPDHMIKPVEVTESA


Legend:
[1] = test system: SH-SY5Y cells; test: total O-GlcNAcylation in cell culture, Western blot (SH-SY5Y); assay type: cell-based; conditions: 24 h, concentrations up to 1 mM
[2] = target: T1, hOGT; test: fluorometric hOGT activity assay (UDP formation)
[3] = target: T1, hOGT; test: fluorescence polarimetry assay, displacement of probe 17 from hOGT; assay type: binding; conditions: displacement of 0.75 µM 17 from 0.8 µM hOGT
Procedure: The derived values of Ki = 7 ± 2 μM (1) and Ki = 5 ± 2 μM (UDP-5S-GlcNAc) were in agreement with the previously reported affinities,[20],[25] validating this assay.
Next, we used this assay platform to examine the effect of the peptide sequence on the inhibitory potency of the S-linked UDP–peptide conjugates. We compiled a set of peptides derived from the known hOGT substrate proteins RB2, TAB1, CK2, and KER, as well as a previously published hOGT sequon[38] (Table 1). The topology of the heptapeptides in the 7-S5C subseries (19–23) was chosen to replicate that of the peptide 5. The nonapeptides 9-S5C (24–26) were designed with a centrally located Cys. […] The TEC reaction of allyl-UDP 4 with all substrates worked routinely well to give an array of the novel S-linked UDP–peptide conjugates 29–38 (Table 1, Table S1) that were evaluated by the modified FP assay (Table 1, Figure 5).
Fluorescence polarimetry measurements […]
probe (125 nM) in 0.1 M Tris-HCl pH 7.5, 0.15 M NaCl, 0.5 mM TCEP and 5% DMSO in a total volume of 25 µL and incubated in the dark for 30 min before read-out.
Binding affinities for ligands were determined by 17 displacement. […] Fluorescence polarisation was measured on a PHERAStar plate reader (BMG LABTECH). Data analysis was performed in GraphPad Prism 7 and binding constants for the labelled 17 and 18 were determined by fitting a one-site – Total binding curve. […]

[4] = target: OGT; design: method as in PMID 23103942; conditions: read-out: Kd of donor substrate; cited from earlier work
[5] = target: human O-GlcNAc transferase (human) (UniProt O15294)
[6] = target: T2, human O-GlcNAc transferase; test: fluorescence polarisation; competition: displacement of the fluorescent probe 17 from hOGT by unlabeled conjugates, Ki derived; conditions: both partners purified
[7] = target: T2, human O-GlcNAc transferase; test: cell-based or functional assay
[8] = target: T2, human O-GlcNAc transferase; test: fluorescence polarisation; competition: displacement of the fluorescent probe 17 from hOGT by unlabeled conjugates, Ki derived; conditions: both partners purified; remark: listed apart in the source
[9] = target: T2, human O-GlcNAc transferase; test: fluorescence polarisation; direct binding of the fluorescein-labeled conjugates 17 and 18 to hOGT; conditions: both partners purified

Molecule	Ki [6] [µM]	further results
CC(=O)N[C@@H](Cc1ccc(O)cc1)C(=O)NCC(=O)N[C@@H](CCCNC(=N)N)C(=O)N[C@@H](CCCCN)C(=O)N[C@@H](CCCCN)C(=O)N[C@@H](CCCNC(=N)N)C(=O)N[C@@H](CCCNC(=N)N)C(=O)N[C@@H](CCC(N)=O)C(=O)N[C@@H](CCCNC(=N)N)C(=O)N[C@@H](CCCNC(=N)N)C(=O)N[C@@H](CCCNC(=N)N)C(=O)NCCOCCOCC(=O)N[C@H](C(=O)N[C@H](C(=O)N1CCC[C@H]1C(=O)N[C@H](C(=O)N[C@@H](CSCCCOP(=O)(O)OP(=O)(O)OC[C@H]1O[C@@H](n2ccc(=O)[nH]c2=O)[C@H](O)[C@@H]1O)C(=O)N[C@H](C(=O)N[C@@H](C)C(N)=O)[C@@H](C)O)C(C)C)[C@@H](C)O)C(C)C [compound 13]		effect on total O-GlcNAcylation in cell cultures [1]: neither 11 nor 13 had a noticeable effect; IC50 [2]: 5 µM
CC(=O)N[C@H](C(=O)N[C@H](C(=O)N1CCC[C@H]1C(=O)N[C@H](C(=O)N[C@@H](CSCCCOP(=O)(O)OP(=O)(O)OC[C@H]1O[C@@H](n2ccc(=O)[nH]c2=O)[C@H](O)[C@@H]1O)C(=O)N[C@@H](CCCNC(=N)N)C(=O)N[C@@H](C)C(N)=O)C(C)C)[C@@H](C)O)C(C)C [compound 32] (Ac-VTPVC(Propyl(3-UDP))RA-NH2)		Ki [3]: 1.3 ± 0.5 µM
CC(=O)N[C@H]1[C@@H](OP(=O)(O)OP(=O)(O)OC[C@H]2O[C@@H](n3ccc(=O)[nH]c3=O)[C@H](O)[C@@H]2O)O[C@H](CO)[C@@H](O)[C@@H]1O [UDP-GlcNAc]		Kd [4]: 16 µM
CC(=O)N[C@@H]1[C@@H](O)[C@H](O)[C@@H](CO)S[C@@H]1OP(=O)(O)OP(=O)(O)OC[C@H]1O[C@@H](n2ccc(=O)[nH]c2=O)[C@H](O)[C@@H]1O [UDP-5S-GlcNAc, reference compound]		Ki [3]: 5 ± 2 µM
TAT-VTPVC(S-propyl-UDP)TA S-linked UDP-peptide conjugate 13		inhibition of hOGT activity in vitro, IC50 [5]: 5 µM
PVFTC(S‑propyl‑UDP)RSAA [S-linked UDP-peptide conjugate 36, PVFTC(S-propyl-UDP)RSAA]	56 ± 32	
PVC(S‑propyl‑UDP)TATHSLSRLH [S-linked UDP-peptide conjugate 37, PVC(S-propyl-UDP)TATHSLSRLH]	80 ± 46	
VTPVC(S‑propyl‑UDP)TA [S-linked UDP-peptide conjugate 6, VTPVC(S-propyl-UDP)TA]	1.3 ± 0.8	inhibition of hOGT activity, fluorometric OGT activity assay, IC50 [7]: 2 µM
VTPVC(S‑propyl‑UDP)SA [S-linked UDP-peptide conjugate 31, VTPVC(S-propyl-UDP)SA]	1.2 ± 1.3	
VTPVS(O‑propyl‑UDP)TA [O-linked UDP-peptide conjugate 1, VTPVS(O-propyl-UDP)TA]		Ki [8]: 7 ± 2 µM
SVPYC(S‑propyl‑UDP)SAQS [S-linked UDP-peptide conjugate 35, SVPYC(S-propyl-UDP)SAQS]	15 ± 2.3	
SVPYC(S‑propyl‑UDP)SA [S-linked UDP-peptide conjugate 30, SVPYC(S-propyl-UDP)SA]	2.3 ± 1.6	
VPTVC(S‑propyl‑UDP)TA [S-linked UDP-peptide conjugate 29, VPTVC(S-propyl-UDP)TA]	12.8 ± 4.5	
KENSPAVTPVC(S‑propyl‑UDP)TA [S-linked UDP-peptide conjugate 38, KENSPAVTPVC(S-propyl-UDP)TA]	1.8 ± 1.3	
VTPVC(S‑propyl‑UDP)TATH [S-linked UDP-peptide conjugate 34, VTPVC(S-propyl-UDP)TATH]	12.7 ± 2.3	
{Floc-Ahx}-VTPVC(S‑propyl‑UDP)TA [5(6)-fluorescein carboxamide (Floc) labeled S-linked UDP-peptide conjugate 17]		Kd [9]: 1.6 µM
PVFTC(S‑propyl‑UDP)RS [S-linked UDP-peptide conjugate 33, PVFTC(S-propyl-UDP)RS]	12.5 ± 7	
